The results in this text go back to US20210147536A1 (MAB VENTURE BIOPHARM, published 2021).

Assay [1] addresses T1, human LAG-3-6*His tag recombinant fusion protein (human, UniProt P18627 23-450, biotin-labelled in panning and in Example 9).
T1 construct: Bought protein; also called hLAG-3-6*his tag recombinant protein; human LAG-3-his tag recombinant fusion protein
T1 sequence: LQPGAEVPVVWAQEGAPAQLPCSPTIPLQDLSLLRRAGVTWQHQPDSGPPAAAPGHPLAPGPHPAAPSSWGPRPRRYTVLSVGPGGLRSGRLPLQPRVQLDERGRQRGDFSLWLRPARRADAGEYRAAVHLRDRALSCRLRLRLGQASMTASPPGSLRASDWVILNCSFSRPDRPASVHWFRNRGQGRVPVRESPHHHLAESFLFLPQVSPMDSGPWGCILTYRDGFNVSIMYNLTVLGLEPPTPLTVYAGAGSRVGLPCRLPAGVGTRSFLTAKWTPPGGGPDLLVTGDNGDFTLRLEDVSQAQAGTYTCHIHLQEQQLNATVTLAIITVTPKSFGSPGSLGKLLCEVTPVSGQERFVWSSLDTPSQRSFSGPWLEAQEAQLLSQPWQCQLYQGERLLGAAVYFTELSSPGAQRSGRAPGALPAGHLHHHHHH
Kind of assay: BLI (Octet Red96), biotinylated hLAG-3-6*his on SA biosensor, antibody 100 µg/mL in solution, 1:2 binding model. A general note: BLI is a label-free optical method that tracks binding on a fibre tip over time.

The target of assay [2] is T2, human LAG-3 on the cell surface (human, UniProt P18627 23-525).
T2 sequence (looked up): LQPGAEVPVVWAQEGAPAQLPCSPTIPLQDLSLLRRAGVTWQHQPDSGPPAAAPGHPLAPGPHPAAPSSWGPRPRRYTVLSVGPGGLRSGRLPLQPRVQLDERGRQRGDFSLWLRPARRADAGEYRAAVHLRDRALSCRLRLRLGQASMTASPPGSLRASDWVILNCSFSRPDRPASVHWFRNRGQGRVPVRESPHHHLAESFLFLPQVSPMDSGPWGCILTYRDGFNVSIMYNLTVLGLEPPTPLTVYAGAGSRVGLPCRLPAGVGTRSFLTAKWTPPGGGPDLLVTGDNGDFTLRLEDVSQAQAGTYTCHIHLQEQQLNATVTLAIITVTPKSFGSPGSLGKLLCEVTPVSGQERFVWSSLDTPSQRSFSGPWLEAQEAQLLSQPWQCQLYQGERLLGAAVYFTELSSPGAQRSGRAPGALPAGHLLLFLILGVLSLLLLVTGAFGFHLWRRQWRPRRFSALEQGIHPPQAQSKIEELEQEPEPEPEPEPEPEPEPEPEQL
Kind of assay: cell-based or functional assay.

Assay [3] addresses T1, human LAG-3-6*His tag recombinant …. Kind of assay: SPR BIAcore T200, antibody on CM5 chip, human LAG-3-6*His 0.352 to 45 nM as analyte. A general note: SPR reads the build-up and loss of mass on a sensor chip optically.
For assay [4] the target is unchanged. Kind of assay: ELISA, antibody coated at 1 µg/ml, human LAG-3-6*His titrated, anti-His HRP; range of three experiments.
The target is the same in assay [5]. Kind of assay: ELISA as in Example 4 (antibody coated, human LAG-3-6*His titrated); N = 5. Background: In an ELISA, binding on a coated surface is turned into a signal by an enzyme label.
Assay [6] has as its target T3, recombinant mouse LAG-3-6*His tag fusion protein (mouse, UniProt Q61790 23-442).
T3 construct: made in Expi293 cells from the mouse LAG-3 cDNA; also called mouse LAG-3 antigen
T3 sequence: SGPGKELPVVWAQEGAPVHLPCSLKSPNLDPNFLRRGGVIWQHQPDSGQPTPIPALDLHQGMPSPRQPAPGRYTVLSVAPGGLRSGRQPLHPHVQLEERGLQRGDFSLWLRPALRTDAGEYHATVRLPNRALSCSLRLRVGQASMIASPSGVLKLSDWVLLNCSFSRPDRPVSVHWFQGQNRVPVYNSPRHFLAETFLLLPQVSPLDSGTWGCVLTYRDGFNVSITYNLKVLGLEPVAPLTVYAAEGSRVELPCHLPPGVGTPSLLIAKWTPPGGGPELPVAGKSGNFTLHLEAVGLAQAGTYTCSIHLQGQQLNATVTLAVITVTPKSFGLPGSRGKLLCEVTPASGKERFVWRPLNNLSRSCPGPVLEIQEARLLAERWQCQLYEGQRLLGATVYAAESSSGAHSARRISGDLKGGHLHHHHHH
The experiment in a line: ELISA, antibody coated at 1 µg/ml, mouse LAG-3-6*His titrated, anti-His HRP.

In assay [7] the target is T4, recombinant Macaca fascicularis LAG-3-6*His tag fusion protein (Macaca fascicularis).
T4 construct: Bought protein; also called Macaca fascicularis LAG-3 antigen
Kind of assay: ELISA, antibody coated at 1 µg/ml, Macaca fascicularis LAG-3-6*His titrated, anti-His HRP.

Assay [8] addresses T2, human LAG-3 on the cell surface. The experiment in a line: flow cytometry on cells expressing the human LAG-3, PE anti-human IgG; N = 4.
Assay [9] has the same target. The experiment in a line: cell-based or functional assay. The source holds these as a separate data set.
Assay [10] has as its target T1, human LAG-3-6*His tag recombinant …. The experiment in a line: BLI (Octet Red96), biotinylated hLAG-3-6*his on SA biosensor, antibody 100 µg/mL in solution, 1:2 binding model. This is another data set of the same source.
Assay [11] shares this target. The description is as above. This is another data set of the same source.

B1: anti-human LAG-3 full human monoclonal antibody MV705-3 (antibody, human IgG4, V domains shown)
VH: EVQLLESGAEVKKPGASVKVSCKASGYTFTSYGISWVRQAPGQGLEWMGWISAYNGNTNYAQKLQGRVTMTTDTSTSTAYMELRSLRSDDTAVYYCARDGWWELLRPDDAFDIWGQGTTVTVSS
VL: QLVLTQSPSVSVSPGQTASITCSGDKLGDKYAYWYQQKPGQAPVLVIYYDSDRPSGIPERFSGSNSGNTATLTISRVEAGDEADYYCQVWDSSSDQVVFGGGTQLTVLG
notes: Full IgG4 with lambda light chain; also called MV705-3(DD + DD)
Broadly, the Kd is the free concentration of one partner at which half of the binding sites on the other are occupied at equilibrium, for simple one-to-one binding. The koff is the rate constant with which the complex falls apart. Usually kon stands for the second-order rate constant of association. Usually EC50 stands for the concentration giving half of the maximal effect. Turning to B1, the Kd is 4.83 nM in assay [1], 0.00851 nM in [3], 4.83 nM in [10] and 3.04 nM in [11]. Besides, the off-rate constant (koff) in [1] was determined as 0.000442 s⁻¹; in [3], 9.18e-07 s⁻¹; in assay [10], 0.000442 s⁻¹; in [11], 0.000373 s⁻¹. Besides, the kon in [1] is 91600 M⁻¹ s⁻¹; in assay [3] it was 108000 M⁻¹ s⁻¹; in [10] it was 91600 M⁻¹ s⁻¹; in assay [11], 122000 M⁻¹ s⁻¹. The “EC50, ability to activate T cells in vitro (LAG3/NFAT Reporter-Jurkat)” value in assay [2] was 0.13 µg/mL. Also, the EC50 is 0.04 to 0.1 µg/mL in assay [4]; 0.039 µg/mL in assay [5]; 2.6 µg/mL in assay [6]; 0.11 µg/mL in assay [7]; 0.0023 µg/mL in [8]. Moreover, the “EC50 of NFAT reporter gene induction (bio-glo luciferase), LAG3/NFAT Reporter-Jurkat + Raji cells + superantigen” value in assay [9] was determined as 0.04 µg/mL.
